Measurements reported in US20240116985A1 (published 2024).
Starred links: 1 amine or outer side, 2 acyl side, 3 side chain; linkers in the order of their positions; H or OH if unused. Positions of bridges follow the written chain, without caps; N, C: chain ends. Non-standard residues stand in square brackets, D forms with d. Primed or numbered codes have the meaning given here. *: point of attachment. PyrS2″ = (S)-3-amino-1-((pent-4-en-1-yloxy)carbonyl)pyrrolidine-3-carboxylic acid (stapling residue), C=CCCCOC(=O)N1CC[C@@](N[*:1])(C(=O)[*:2])C1; B5(4) = 2,2-bis(4-pentenyl)glycine = 2-amino-2-(pent-4-en-1-yl)hept-6-enoic acid (stitching residue), C=CCCCC(CCCC=C)(N[*:1])C(=O)[*:2]; B5(5) = 2,2-bis(4-pentenyl)glycine, 2-amino-2-(pent-4-en-1-yl)hept-6-enoic acid (stitching residue), C=CCCCC(CCCC=C)(N[*:1])C(=O)[*:2]; TfeGA = (S)-2-amino-3-((carboxymethyl)(2,2,2-trifluoroethyl)amino)propanoic acid, O=C([C@H](CN(CC(=O)[*:3])CC(F)(F)F)N[*:1])[*:2]; PyrS2 = (S)-3-amino-1-((pent-4-en-1-yloxy)carbonyl)pyrrolidine-3-carboxylic acid, C=CCCCOC(=O)N1CC[C@@](N[*:1])(C(=O)[*:2])C1; 5iPr3COOHF = (S)-3-(2-amino-2-carboxyethyl)-5-isopropylbenzoic acid, CC(C)c1cc(C[C@H](N[*:1])C(=O)[*:2])cc(C(=O)[*:3])c1; Phe(4-CF3) = N[C@@H](Cc1ccc(C(F)(F)F)cc1)C(=O)O; Phe(2-CF3) = N[C@@H](Cc1ccccc1C(F)(F)F)C(=O)O; Phe(2-Cl) = N[C@@H](Cc1ccccc1Cl)C(=O)O; Bta = N[C@@H](Cc1csc2ccccc12)C(=O)O; αAllylPro = C=CC[C@@]1(C(=O)O)CCCN1; tBuAla = CC(C)(C)C[C@H](N)C(=O)O; 3Thi = N[C@@H](Cc1ccsc1)C(=O)O; S8 = C=CCCCCCC[C@](C)(N)C(=O)O; 34ClF = not defined here; NH(CH2)6NH2 = NCCCCCCN*; Aib = CC(C)(N)C(=O)O

T1: full-length beta-Catenin (Uniprot ID P35222) (Homo sapiens (Human), UniProt P35222 2-781)
T1 construct: The AlphaScreen assay used a Histidine (Nickel Chelate) detection kit, so a His tag is likely, but no tag is described; also called B-Catenin; bCat
T1 sequence: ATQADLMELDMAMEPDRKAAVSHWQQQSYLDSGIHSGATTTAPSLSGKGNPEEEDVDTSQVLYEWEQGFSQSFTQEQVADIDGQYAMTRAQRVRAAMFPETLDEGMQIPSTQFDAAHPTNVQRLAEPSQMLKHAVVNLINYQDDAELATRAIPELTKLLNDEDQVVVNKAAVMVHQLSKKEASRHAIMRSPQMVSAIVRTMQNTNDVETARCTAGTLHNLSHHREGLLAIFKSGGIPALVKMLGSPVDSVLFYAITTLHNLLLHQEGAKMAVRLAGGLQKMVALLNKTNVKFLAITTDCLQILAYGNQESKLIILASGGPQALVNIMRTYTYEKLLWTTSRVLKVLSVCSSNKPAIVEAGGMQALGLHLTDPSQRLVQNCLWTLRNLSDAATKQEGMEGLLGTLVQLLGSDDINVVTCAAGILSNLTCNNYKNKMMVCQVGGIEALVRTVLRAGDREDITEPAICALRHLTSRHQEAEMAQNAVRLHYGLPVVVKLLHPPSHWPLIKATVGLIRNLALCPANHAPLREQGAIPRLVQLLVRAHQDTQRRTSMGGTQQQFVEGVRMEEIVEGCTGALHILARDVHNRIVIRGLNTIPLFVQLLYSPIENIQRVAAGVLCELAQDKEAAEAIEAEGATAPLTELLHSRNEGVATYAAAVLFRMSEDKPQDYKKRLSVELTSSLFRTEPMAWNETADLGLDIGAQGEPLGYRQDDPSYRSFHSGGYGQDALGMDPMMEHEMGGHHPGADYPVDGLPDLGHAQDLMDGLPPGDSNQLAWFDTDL

T2: B-cat-Halo (UniProt P35222 1-781)
T2 sequence (looked up): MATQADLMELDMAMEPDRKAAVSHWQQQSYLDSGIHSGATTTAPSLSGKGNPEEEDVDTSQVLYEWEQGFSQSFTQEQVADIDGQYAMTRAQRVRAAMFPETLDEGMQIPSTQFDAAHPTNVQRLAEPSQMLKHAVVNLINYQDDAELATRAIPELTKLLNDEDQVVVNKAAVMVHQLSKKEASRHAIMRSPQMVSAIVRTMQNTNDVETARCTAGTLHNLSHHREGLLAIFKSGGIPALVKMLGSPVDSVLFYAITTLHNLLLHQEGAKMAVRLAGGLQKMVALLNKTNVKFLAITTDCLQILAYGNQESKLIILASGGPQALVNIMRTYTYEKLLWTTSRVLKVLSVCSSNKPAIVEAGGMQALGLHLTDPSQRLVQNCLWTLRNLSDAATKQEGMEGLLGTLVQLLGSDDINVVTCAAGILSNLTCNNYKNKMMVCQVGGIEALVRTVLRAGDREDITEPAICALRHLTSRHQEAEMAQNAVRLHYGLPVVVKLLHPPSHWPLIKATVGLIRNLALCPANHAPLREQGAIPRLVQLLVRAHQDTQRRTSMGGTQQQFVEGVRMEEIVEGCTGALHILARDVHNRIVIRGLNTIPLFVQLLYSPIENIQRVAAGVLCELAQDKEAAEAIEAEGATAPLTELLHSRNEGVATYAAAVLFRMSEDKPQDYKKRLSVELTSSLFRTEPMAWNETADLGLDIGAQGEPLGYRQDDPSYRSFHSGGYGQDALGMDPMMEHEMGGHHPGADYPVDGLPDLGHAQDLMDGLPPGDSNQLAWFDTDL

T3: B-cat-Halo (beta-catenin HaloTag NanoBRET construct expressed in HEK293 cells) (UniProt P35222 1-781)
T3 sequence (looked up): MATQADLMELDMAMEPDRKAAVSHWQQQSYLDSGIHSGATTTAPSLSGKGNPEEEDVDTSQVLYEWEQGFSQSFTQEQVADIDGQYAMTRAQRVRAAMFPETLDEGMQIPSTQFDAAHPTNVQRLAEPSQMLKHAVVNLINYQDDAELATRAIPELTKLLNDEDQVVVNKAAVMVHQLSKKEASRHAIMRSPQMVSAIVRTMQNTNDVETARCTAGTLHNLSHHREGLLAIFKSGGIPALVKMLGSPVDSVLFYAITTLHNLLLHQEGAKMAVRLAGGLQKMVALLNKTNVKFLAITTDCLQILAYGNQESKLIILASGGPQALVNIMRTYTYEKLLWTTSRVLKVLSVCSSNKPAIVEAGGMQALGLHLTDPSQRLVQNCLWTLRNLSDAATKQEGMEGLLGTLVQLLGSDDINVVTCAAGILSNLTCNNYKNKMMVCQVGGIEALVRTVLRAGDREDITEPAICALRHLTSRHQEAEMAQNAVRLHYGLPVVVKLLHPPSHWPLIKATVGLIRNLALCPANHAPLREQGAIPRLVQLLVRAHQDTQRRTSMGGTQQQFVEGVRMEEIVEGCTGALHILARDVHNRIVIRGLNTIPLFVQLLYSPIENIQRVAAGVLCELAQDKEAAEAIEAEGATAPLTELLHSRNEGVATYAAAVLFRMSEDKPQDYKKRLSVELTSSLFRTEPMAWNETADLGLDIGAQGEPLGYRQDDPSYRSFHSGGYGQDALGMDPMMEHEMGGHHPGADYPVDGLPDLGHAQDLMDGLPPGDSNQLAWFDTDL


Legend:
[1] = target: T1, full-length beta-Catenin (Uniprot ID …); test: fluorescence polarization competition: full-length beta-catenin + 5FAM-TCF4(10-53) probe, peptide titrated
Summary of the method: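 Incubate 60 minutes at 20° C. away from light, then read polarization in duplicate. Fit to 1:1 binding with hill slope.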

[2] = target: T1, full-length beta-Catenin (Uniprot ID …); test: AlphaScreen competition: full-length beta-catenin + biotin-TCF4(10-53) probe, peptide titrated
Summary of the method: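 Titrated peptide was preincubated 15 minutes at 20° C, then donor and acceptor beads were added for 60 minutes at 20° C protected from light. Reads were done in duplicate, and data were fitted to a 1:1 binding model with Hill slope; concentrations are final.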

B-cat-Halo = target: T2, B-cat-Halo; test: cell-based or functional assay
[3] = target: T3, B-cat-Halo (beta-catenin HaloTag …); test: cell-based or functional assay

NanoBRET Abs IC50 (B-cat-Halo) | NanoBRET Abs IC50 [3] | Binder | also measured
4.5 µM | – | Ac-[αAllylPro]D[tBuAla][B5(5)]D[5iPr3COOHF]AAFL[PyrS2″][Phe(2-CF3)][Bta]Q-NH2 (staple 1-4, 4-11) [I-2430] | –
– | 10.3 µM | Ac-[αAllylPro]D[tBuAla][B5(4)]D[TfeGA]AAFT[PyrS2][Phe(2-Cl)][Bta]Q-{NH(CH2)6NH2} (staple 1-4, 4-11) [I-1061] | –
– | > 20 µM | XDXXDDAAFNXXXQ (not fully specified; AzAc-PL3-Asp-Npg-B5-Asp-Asp-Ala-Ala-Phe-Asn-S8-3Thi-BztA-Gln-NH2; stapled PL3-B5 and B5-S8 (olefin metathesis)) [I-1053] | –

The remaining lines, values behind:

Binder | NanoBRET Abs IC50 (B-cat-Halo) | NanoBRET Abs IC50 [3] | also measured
Ac-[αAllylPro]DA[B5(4)]DDAAFV[S8][Phe(4-CF3)]WQ-NH2 (staple 1-4, 4-11, Stapled peptide composition; also called Ac-PL3-Asp-Ala-B5-Asp-Asp-Ala-Ala-Phe-Val-S8-4F3MeF-Trp-Gln-NH2) [I-255] | – | – | EC50 [1]: 5 µM; EC50 [2]: 1.96 µM
Ac-[αAllylPro]D[tBuAla][B5(5)]D[5iPr3COOHF]QAFL[PyrS2″][Phe(2-CF3)][Bta]A-NH2 (staple 1-4, 4-11) [I-2431] | 7 µM | – | –
Ac-[αAllylPro]D[tBuAla][B5(5)]NT[Aib]AFN[PyrS2″][3Thi][34ClF]Q-NH2 (staple 1-4, 4-11; reading uncertain; also: printed as Ac-PL3-Asp-Npg-B5-Asn-Thr-Aib-Ala-Phe-Asn-PyrS2-3Thi-34C1F-Gln-NH2) [I-2417] | 21.6 µM | – | –
